Measured values from US20210228853A1, “DRUG DELIVERY METHODS TARGETING THE LYMPHATIC SYSTEM” (Sorrento Therapeutics, Inc., priority 2018, published 2021).

Experiments:
[1] = Etanercept pharmacokinetics in rat serum by route of administration (ELISA); format: in vivo, Sprague Dawley rats
Method: Methods and procedures for some of these experiments have been adapted from Aldrich, et al., Arthritis Res. Ther., (2017), 19:116 (DOI 10.1186/s13075-017-1323-z; Open Access) which is incorporated by reference herein in its entirety for all purposes.
In order to characterize differences in etanercept delivery by the different routes of administration, normal rats were used to determine the PK profiles following a single dose of 1 mg etanercept in 100 μL delivered via Sofusa™ (n=6), conventional IV (in the tail vein, n=6), SC (dorsolateral injection at the same site as the Sofusa™ application, n=4), or ID injections (symmetrical dorsolateral injections 2×50 uL for a total dose of 1 mg etanercept, n=6). Other than the Sofusa™ delivery, all administration was conducted using a 31-gauge needle. At 2, 4, 8, 12, 24, and 36 h after administration, animals were anesthetized under isoflurane, and 200 μL of blood was drawn from the jugular vein. The etanercept concentration in serum was quantified using the Etanercept ELISA Kit (ABIN: 1540251) (Matriks Biotechnology Co., LTD., Ankara, Turkey). Optical density was measured at 450 nm using Thermo Scientific Multiskan EX (Thermo Fisher Scientific, Waltham, Mass., USA).

[2] = Biodistribution of radiolabeled etanercept to axillary and inguinal lymph nodes; format: in vivo; conditions: rat; Sofusa vs intravenous or subcutaneous; 12 and 36 hours; 1 mg
Method: In order to determine the amount etanercept delivered to the lymph nodes, a radiolabeled etanercept solution was administrated using the Sofusa™ drug delivery platform (1 mg etanercept in 100 μL), IV (1 mg etanercept in the tail vein in 100 μL), SC (1 mg etanercept in the dorsolateral side at the same site as the Sofusa™ application, 100 μL), and ID (1 mg total etanercept in two 50 μL injections). Animals were harvested at 12 and 36 hrs after administration, and the left/right axillary and inguinal lymph nodes were collected, weighed, and counted for radioactivity using a 2480 Wizard2 automatic gamma counter (PerkinElmer, Waltham, Mass., USA). The time-corrected radioactivity was then used to compute the μg/mL of tissue etanercept concentration from the specific radioactivity of the dosing solution with animals that were euthanized at 12 hrs (n=4, Sofusa™; n=6, IV; n=6, ID; and n=6, SC) and at 36 hrs (n=6, Sofusa™; n=6, IV; n=6, ID; and n=6, SC).
In order to validate the amount of etanercept delivered, the radioactivity was measured in the Sofusa™ device and tubing before and after the 1 hr infusion. Measurement was conducted using the dose calibrator. The amount of etanercept delivered as the difference in the time-corrected radioactivity before and after administration was determined.

[3] = tested on: Collagen Induced Arthritic (CIA) Model for Rheumatoid Arthritis (RA); test: Collagen induced arthritic (CIA) model for rheumatoid arthritis, hind limb/joint swelling; format: in vivo, rat
Method: (§1) Specifically, type II porcine collagen (Chondrex, Inc. catalog #20031), solubilized in 0.05 N of acetic acid in sterile water at a concentration of 2 mg/mL was emulsified with an equal volume of incomplete Freud's adjuvant (Chondrex, Inc. catalog #7002) using homogenization at 35,000 rpm (Omni International homogenizer TH, homogenizer probe #32750); 100 μL emulsion was injected subcutaneously at the base of the tails on both sides for initial administration (day 0, 200 μL of emulsion total), and then again, 7 days later, on the right side only, for booster administration (day 7, 100 μL of emulsion total). Hind limb swelling, usually evident by day 14, was assessed by caliper measurements of the rear ankle cross (side-to-side) and oblique (front-to-back) dimensions. The two measurements for each hind limb were multiplied together for assessment of swelling, and the percent change from baseline was computed. These measurements and lymphatic imaging were performed on days 0, 7, 11, 13, and 18, in the early stages of CIA before the onset of joint destruction. Four groups of animals were studied: (1) untreated (n=20), (2) treated with etanercept given by SC administration (n=20, 1 mg in 100 μL), (3) treated with etanercept given by ID administration (n=20, two administrations of 0.5 mg in 50 μL), and (4) treated with etanercept given via Sofusa™ (n=18, one administration of 1 mg in 100 μL delivered).

[4] = tested on: Collagen Induced Arthritic (CIA) Model for Rheumatoid Arthritis (RA); test: Lymphatic pumping rate by NIRF imaging in CIA rats; format: in vivo, rat; conditions: for lymphatic pumping in the hind limbs vs untreated animals: CIA rat, days 13 and 18 post CIA induction
Method: as §1, with “delivered). Rats were anesthetized with isoflurane and shaved before imaging; 10 μL of 625 μM ICG was then injected ID with a 31-gauge needle/syringe (BD #328438, Fisher Scientific) at the base of the tail and on the dorsal side of the paw on both the right and left sides of the rats to perform NIRF imaging of the lymphatics. […] The integration time for fluorescence images was 200 ms; 300-900 images were collected per lateral side per rat for lymph propulsive frequency measurements. […]” for “delivered).”

[5] = Etanercept pharmacokinetics in porcine model by route of administration; format: in vivo, Yorkshire pig
[6] = Sofusa drug delivery platform vs subcutaneous
[7] = Table 1, IV, 1 mg etanercept single dose
[8] = Table 1, SC, 1 mg etanercept single dose
[9] = Table 2 summary, Sofusa drug delivery platform

etanercept
AUC48, Sofusa compared to SC [1, 6]: almost double | Tmax, Sofusa compared to SC [1, 6]: significantly shorter | AUC0-48 [1, 7]: 2,800 hrs-μg/mL | BA [1, 7]: 100% | Cmax [1, 7]: 120000 ng/mL | Tmax [1, 7]: 8 h | AUC0-48 [1, 8]: 302 hrs-μg/mL | BA [1, 8]: 10% | Cmax [1, 8]: 15000 ng/mL | Tmax [1, 8]: 36 h | AUC0-48 ([1]; Table 1, Sofusa Study 1): 545 hrs-μg/mL | BA ([1]; Table 1, Sofusa Study 1): 20% | Cmax ([1]; Table 1, Sofusa Study 1): 25000 ng/mL | Tmax ([1]; Table 1, Sofusa Study 1): 4 h | AUC0-48 ([1]; Table 1, Sofusa Study 2): 502 hrs-μg/mL | BA ([1]; Table 1, Sofusa Study 2): 18% | Cmax ([1]; Table 1, Sofusa Study 2): 22000 ng/mL | Tmax ([1]; Table 1, Sofusa Study 2): 2 h | AUC0-48 ([1]; Table 1, Sofusa Study 3): 538 hrs-μg/mL | BA ([1]; Table 1, Sofusa Study 3): 19% | Cmax ([1]; Table 1, Sofusa Study 3): 20000 ng/mL | Tmax ([1]; Table 1, Sofusa Study 3): 2 h | AUC0-48 ([1]; Table 2 summary, SC): 492 hrs-μg/mL | BA ([1]; Table 2 summary, SC): 17% | Cmax ([1]; Table 2 summary, SC): 15000 ng/mL | Tmax ([1]; Table 2 summary, SC): 36 h | AUC0-48 [1, 9]: 800 hrs-μg/mL | BA [1, 9]: 29% | Cmax [1, 9]: 19000 ng/mL | Tmax [1, 9]: 10 h | AUC0-36 ([1]; Table 3, Intradermal): 696 µg·h/mL | BA ([1]; Table 3, Intradermal): 25% | Cmax ([1]; Table 3, Intradermal): 21000 ng/mL | Tmax ([1]; Table 3, Intradermal): 12 h | AUC0-36 ([1]; Table 3, Intravenous): 2,815 μg-hour/ml | BA ([1]; Table 3, Intravenous): 100% | Cmax ([1]; Table 3, Intravenous): 120000 ng/mL | Tmax ([1]; Table 3, Intravenous): 2 h | AUC0-36 ([1]; Table 3, Sofusa): 1010 µg·h/mL | BA ([1]; Table 3, Sofusa): 36% | Cmax ([1]; Table 3, Sofusa): 23000 ng/mL | Tmax ([1]; Table 3, Sofusa): 12 h | AUC0-36 ([1]; Table 3, Subcutaneous): 302 µg·h/mL | BA ([1]; Table 3, Subcutaneous): 11% | Cmax ([1]; Table 3, Subcutaneous): 15000 ng/mL | Tmax ([1]; Table 3, Subcutaneous): 36 h | active agent in the axillary and inguinal lymph nodes [2]: significantly more of the active agent | joint swelling over time ([3]; CIA RA rat model, Sofusa administration, 1 mg): decreased joint swelling over time | increase in swelling with progression of disease (paired group comparisons, ANOVA) ([3]; CIA rat, ID administration): swelling was significantly increased | increase in swelling with progression of disease (paired group comparisons, ANOVA) ([3]; CIA rat, SC administration): swelling was significantly increased | increase in swelling with progression of disease (paired group comparisons, ANOVA) ([3]; CIA rat, SOFUSA administration): no statistically significant increase in swelling | swelling of the hind limbs vs untreated animals ([3]; CIA rat, all treated groups (SC, ID, Sofusa), days 13 and 18): significant reduction in swelling | hind limb swelling, SOFUSA compared to SC-treated animals ([3]; CIA rat, days 13 and 18): significantly reduced hind limb swelling | lymphatic pumping rate ([4]; CIA RA rat, Sofusa compared to untreated, ID and SC groups): significantly increased | lymphatic pumping in the hind limbs vs untreated animals ([4]; SC administration): statistically significant greater lymphatic pumping | lymphatic pumping in the hind limbs vs untreated animals ([4]; SOFUSA administration): statistically significant greater lymphatic pumping | AUC48 and bioavailability, Sofusa vs intravenous [5]: comparable to that for intravenous administration | AUC48 and bioavailability, Sofusa vs subcutaneous [5]: significantly higher than that for subcutaneous delivery | serum concentration ([5]; Sofusa at a dose much lower than subcutaneous administration): maintained a serum concentration at a therapeutically effective concentration | AUC0-48 ([5]; Table 4, IV): 143 hrs-μg/mL | BA ([5]; Table 4, IV): 100% | Cmax ([5]; Table 4, IV): 6000 ng/mL | Tmax ([5]; Table 4, IV): 2 h | AUC0-48 ([5]; Table 4, SC): 89 hrs-μg/mL | BA ([5]; Table 4, SC): 62% | Cmax ([5]; Table 4, SC): 2000 ng/mL | Tmax ([5]; Table 4, SC): 24 h | AUC0-48 ([5]; Table 4, Sofusa): 132 hrs-μg/mL | BA ([5]; Table 4, Sofusa): 93% | Cmax ([5]; Table 4, Sofusa): 4400 ng/mL | Tmax ([5]; Table 4, Sofusa): 24 h
